Test results from patent US20160200782A1 (MOERAE MATRIX, published 2016).

How the values were obtained:
Assay in all cases: cell-based or functional assay
[1] = biological target: T1, Flt3(h) (human, UniProt P36888 564-993, limits assumed)
T1 sequence (looked up): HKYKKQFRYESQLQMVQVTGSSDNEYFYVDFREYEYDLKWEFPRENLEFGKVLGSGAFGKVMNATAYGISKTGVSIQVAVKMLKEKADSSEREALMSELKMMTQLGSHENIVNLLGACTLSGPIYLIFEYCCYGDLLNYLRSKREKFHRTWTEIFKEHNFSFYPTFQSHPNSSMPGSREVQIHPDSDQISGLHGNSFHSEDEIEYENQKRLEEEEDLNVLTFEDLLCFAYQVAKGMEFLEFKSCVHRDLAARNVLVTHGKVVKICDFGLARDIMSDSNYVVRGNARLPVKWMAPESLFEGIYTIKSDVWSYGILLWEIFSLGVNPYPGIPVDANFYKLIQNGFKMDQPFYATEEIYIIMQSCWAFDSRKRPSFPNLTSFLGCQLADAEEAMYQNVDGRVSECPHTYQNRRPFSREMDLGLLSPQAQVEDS

[2] = biological target: T2, Fms(Y969C)(h) (human, UniProt P07333 538-972, limits assumed)
T2 sequence (looked up): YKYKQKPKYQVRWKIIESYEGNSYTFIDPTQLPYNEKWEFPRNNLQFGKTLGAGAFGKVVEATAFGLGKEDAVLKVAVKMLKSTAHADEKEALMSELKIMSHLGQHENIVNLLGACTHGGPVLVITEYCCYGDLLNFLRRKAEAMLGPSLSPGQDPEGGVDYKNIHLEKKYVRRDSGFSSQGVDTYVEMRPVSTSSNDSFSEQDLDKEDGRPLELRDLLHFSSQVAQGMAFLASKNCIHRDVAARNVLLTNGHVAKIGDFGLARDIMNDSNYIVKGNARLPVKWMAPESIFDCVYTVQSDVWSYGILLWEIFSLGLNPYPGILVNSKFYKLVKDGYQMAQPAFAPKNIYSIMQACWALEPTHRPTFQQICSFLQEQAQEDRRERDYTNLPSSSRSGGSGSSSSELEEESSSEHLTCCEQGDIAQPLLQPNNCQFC

[3] = biological target: Hck(h) (human, UniProt P08631 251-518, limits assumed)
[4] = biological target: HIPK1(h) (human, UniProt Q86Z02 158-555, limits assumed)
[5] = biological target: HIPK3(h) (human, UniProt Q9H422 161-562, limits assumed)
[6] = biological target: MRCKα(h) (human, UniProt Q5VT25 1-473, limits assumed)
[7] = biological target: T3, PKCζ(h) (human, UniProt Q05513 1-592)
T3 sequence (looked up): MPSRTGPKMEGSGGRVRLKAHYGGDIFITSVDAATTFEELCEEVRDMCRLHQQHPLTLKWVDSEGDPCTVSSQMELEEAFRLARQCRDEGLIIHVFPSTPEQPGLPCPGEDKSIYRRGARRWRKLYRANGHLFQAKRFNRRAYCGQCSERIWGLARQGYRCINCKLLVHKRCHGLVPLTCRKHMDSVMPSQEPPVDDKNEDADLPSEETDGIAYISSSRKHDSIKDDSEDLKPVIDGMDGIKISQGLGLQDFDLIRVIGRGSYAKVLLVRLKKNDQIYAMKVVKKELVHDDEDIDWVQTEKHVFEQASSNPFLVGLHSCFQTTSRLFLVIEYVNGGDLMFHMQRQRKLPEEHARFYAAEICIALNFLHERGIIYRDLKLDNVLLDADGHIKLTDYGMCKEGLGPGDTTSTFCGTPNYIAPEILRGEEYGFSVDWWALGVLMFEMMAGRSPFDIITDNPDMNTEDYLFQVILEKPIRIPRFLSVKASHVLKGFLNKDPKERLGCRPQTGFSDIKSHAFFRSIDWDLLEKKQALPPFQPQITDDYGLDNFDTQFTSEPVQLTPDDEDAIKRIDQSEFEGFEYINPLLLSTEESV

[8] = biological target: Aurora-B(h) (human, UniProt Q96GD4 1-344)
[9] = biological target: T4, PrKX(h) (human, UniProt P51817 1-358)
T4 sequence (looked up): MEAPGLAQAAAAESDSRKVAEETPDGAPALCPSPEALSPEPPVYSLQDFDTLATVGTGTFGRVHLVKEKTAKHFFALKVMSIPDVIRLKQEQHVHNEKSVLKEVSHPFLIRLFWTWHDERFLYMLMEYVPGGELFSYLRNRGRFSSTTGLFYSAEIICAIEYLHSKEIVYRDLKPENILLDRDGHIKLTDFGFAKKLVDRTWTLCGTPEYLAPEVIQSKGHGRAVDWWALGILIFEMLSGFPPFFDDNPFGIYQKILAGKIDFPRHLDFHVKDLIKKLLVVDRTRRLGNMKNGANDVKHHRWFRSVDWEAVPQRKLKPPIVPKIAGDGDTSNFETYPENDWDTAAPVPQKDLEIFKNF

[10] = biological target: T5, Rse(h) (human, UniProt Q06418 451-890, limits assumed)
T5 sequence (looked up): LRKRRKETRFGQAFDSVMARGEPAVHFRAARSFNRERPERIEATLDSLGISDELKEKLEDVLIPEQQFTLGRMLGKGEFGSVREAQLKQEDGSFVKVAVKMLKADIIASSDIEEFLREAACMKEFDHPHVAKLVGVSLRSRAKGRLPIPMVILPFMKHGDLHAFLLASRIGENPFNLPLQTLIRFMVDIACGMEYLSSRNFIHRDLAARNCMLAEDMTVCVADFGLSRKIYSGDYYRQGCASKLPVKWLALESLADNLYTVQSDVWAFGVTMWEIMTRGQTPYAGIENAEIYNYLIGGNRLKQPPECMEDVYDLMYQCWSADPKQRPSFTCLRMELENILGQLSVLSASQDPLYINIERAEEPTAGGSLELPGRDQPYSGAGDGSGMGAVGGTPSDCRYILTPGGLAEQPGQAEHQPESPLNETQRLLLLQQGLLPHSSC

[11] = biological target: Rsk4(h) (human, UniProt Q9UK32 1-745, limits assumed)
[12] = biological target: EGFR(T790M,L858R)(h) (human, UniProt P00533 696-1210, limits assumed)
[13] = biological target: Ab1(Q252H)(h) (human, UniProt P00519 27-1130, limits assumed)

B1: MMI-0400 (peptide)
peptide: KAFAKLAARLYRKALARQLGVAA
% activity [1]: 18%
% activity [2]: 91%
% activity [3]: 72%
% activity [4]: 91%
% activity [5]: 105%
% activity [6]: 97%
% activity [7]: 75%
% activity [8]: 150%
% activity [9]: 76%
% activity [10]: 89%
% activity [11]: 91%
% activity [12]: 78%
% activity [13]: 98%

B2: MMI-0300 (peptide)
peptide: FAKLAARLYRKALARQLGVAA
% activity [1]: 84%
% activity [2]: 72%
% activity [3]: 72%
% activity [4]: 74%
% activity [5]: 93%
% activity [6]: 104%
% activity [7]: 81%
% activity [8]: 128%
% activity [9]: 61%
% activity [10]: 88%
% activity [11]: 90%
% activity [12]: 85%
% activity [13]: 82%
